Source: publication PMC8053095
Read-outs that look alike come from different tables or passages of the source.

Legend:
ToPif1 [1] = molecular target: T1, ToPif1 (Thermus oshimai, UniProt K7RJ88 64-507); test: crystal structure
T1 sequence: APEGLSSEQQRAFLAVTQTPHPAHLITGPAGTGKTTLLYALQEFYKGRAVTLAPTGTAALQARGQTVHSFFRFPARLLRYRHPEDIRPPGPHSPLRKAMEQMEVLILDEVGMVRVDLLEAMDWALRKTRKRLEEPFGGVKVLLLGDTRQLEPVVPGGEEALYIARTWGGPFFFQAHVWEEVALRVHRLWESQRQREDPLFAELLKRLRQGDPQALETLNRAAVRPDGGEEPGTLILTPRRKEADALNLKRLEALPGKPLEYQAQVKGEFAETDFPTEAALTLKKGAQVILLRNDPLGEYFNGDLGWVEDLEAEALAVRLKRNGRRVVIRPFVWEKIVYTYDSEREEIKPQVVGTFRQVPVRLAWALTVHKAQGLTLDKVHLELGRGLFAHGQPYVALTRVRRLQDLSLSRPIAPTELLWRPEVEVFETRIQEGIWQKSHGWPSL

ToPif1 S69C/S405C [2] = molecular target: T2, ToPif1 S69C/S405C (Thermus oshimai, UniProt K7RJ88 64-507, S69C;S405C); test: smFRET
T2 sequence: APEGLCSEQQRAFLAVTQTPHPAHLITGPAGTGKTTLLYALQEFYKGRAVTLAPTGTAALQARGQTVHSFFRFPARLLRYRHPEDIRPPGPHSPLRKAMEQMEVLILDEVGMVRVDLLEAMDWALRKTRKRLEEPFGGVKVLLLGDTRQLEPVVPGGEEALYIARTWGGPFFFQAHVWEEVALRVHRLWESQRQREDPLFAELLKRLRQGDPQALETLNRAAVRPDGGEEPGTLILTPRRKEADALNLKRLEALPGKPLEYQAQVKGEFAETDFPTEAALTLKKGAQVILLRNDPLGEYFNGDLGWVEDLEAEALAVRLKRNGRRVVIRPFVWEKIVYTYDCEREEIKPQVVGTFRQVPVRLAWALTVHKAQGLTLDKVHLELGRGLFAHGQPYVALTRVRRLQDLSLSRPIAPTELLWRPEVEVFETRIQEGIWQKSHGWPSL

ToPif1 [3] = molecular target: T1, ToPif1; test: DLS
ToPif1 S69C/S405C [4] = molecular target: T2, ToPif1 S69C/S405C; test: smFRET; remark: listed apart in the source

B1: S7D11 (dsDNA)
DNA 1: TTTTTTTCGCAGTGCTCG
DNA 2: CGAGCACTGCG
binding result (ToPif1 [1]): binds

B2: S8D38 (dsDNA)
DNA 1: TTTTTTTTTCCGGATCACCATGGCGGACTCTCTGCTCTCGTGCTCC
DNA 2: GGAGCACGAGAGCAGAGAGTCCGCCATGGTGATCCGGA
binding result (ToPif1 S69C/S405C [2]): binds

TTTTTTTTTTTTTTT (ssDNA) [dT15]
binding result (ToPif1 [3]): binds

TTTTTTTT (ssDNA) [dT8]
binding result (ToPif1 S69C/S405C [4]): binds
